Test system: C/EBPβ
Assay: Specificity control: C/EBPβ expression by western blot of transfected HeLa-S3 lysates
Assay type: cell-based
Conditions: HeLa-S3 cell lysates, FIG. 4C
Procedure: FIGS. 4A-4D. […] FIG. 4D is another specificity control showing that a control GFP expression vector was not affected by either IE2 291-343 or IE2 291-364. HeLa-S3 cells were transfected with both a GFP expression vector and cotransfected with either E2 291-343 or IE 291-364 expression vectors and GFP expression analyzed 24 hours later by a fluorescence activated cell sorter.
Because the IE2 291-364 region was previously mapped as one of three TBP binding sites on IE2, it was possible that the inhibitory function was due to interaction with TBP. To exclude this possibility, the expression of two other genes that contain TATA boxes in their promoters were investigated. First, an observed the expression of C/EBPβ from the expression vector by western blot (FIG. 4C) was conducted. […] Second, His-tagged inhibitors were cotransfected with ev GFP and the geometric mean brightness of transfected cells measured by flow cytometry (FIG. 4D). […] It is believed that the basis for the interaction is localized to residues 315-328 of the IE2 molecule because a variant of IE2 291-364 missing the 315-328 region (delA) lacks binding to Spi-1 ETS domain in a GST fusion pull-down assay (FIG. 5).

B1: GFP 291-364 (protein)
chain: SSHHGRGGFGGAASSSLLSCGHQSSGGASTGPRKKKSKRISELDNEKVRNIMKDKNTPFCTPNVQTRRGRVKID
modifications: left off: large carriers
effect on expression of C/EBPβ protein (western blot): no reduction
